Experimental findings from US7183110B2, “Antibody immunoreactive with a 5-enolpyruvylshikimate-3-phosphate synthase” (Monsanto Technology LLC, priority 1990, dated 2007) are described below.

The target in data set [1] is T1, B. subtilis EPSPS (Bacillus subtilis, UniProt P20691).
T1 construct: Standard EPSPS assay reactions contained crude bacterial extract; endogenous in cells; host or cells: Bacillus subtilis 1A2 crude extract; some values from E. coli GB100 carrying pMON21133 (subclone) or pMON21132 (PCR clone)
The data set is described as follows: EPSPS assay and kinetics of B. subtilis EPSPS in crude bacterial extract. The format is biochemical. The following applies: for EPSPS specific activity: crude extract. The method, then: Bacillus subtilis 1A2 (prototroph) was obtained from the Bacillus Genetic Stock Center at Ohio State University. Standard EPSPS assay reactions contained crude bacterial extract with, 1 mM phosphoenolpyruvate (PEP), 2 mM shikimate-3-phosphate (S3P), 0.1 mM ammonium molybdate, 5 mM potassium fluoride, and 50 mM HEPES, pH 7.0 at 25° C. One unit (U) of EPSPS activity is defined as one μmol EPSP formed per minute under these conditions. For kinetic determinations, reactions contained crude bacterial, 2 mM S3P, varying concentrations of PEP, and 50 mM HEPES, pH 7.0 at 25° C. […] When the assays were performed in the presence of 1 mM glyphosate, 100% of the EPSPS activity was retained. The appKm(PEP) of the B. subtilis EPSPS was determined by measuring the reaction velocity at varying concentrations of PEP. The results were analyzed graphically by the hyperbolic, Lineweaver-Burk and Eadie-Hofstee plots which yielded appKm(PEP) values of 15.3 μM, 10.8 μM and 12.2 μM, respectively. These three data treatments are in good agreement, and yield an average value for appKm(PEP) of 13 μM. The appKi(glyphosate) was estimated by determining the reaction rates of B. subtilis 1A2 EPSPS in the presence of several concentrations of glyphosate, at a PEP concentration of 2 μM.
The other approach to the isolation of the B. subtilis aroE gene, subcloning from ECE13 into pUC118, was performed as follows: • (i) Cut ECE13 and pUC with XmaI and SphI. • (ii) Isolate 1700 bp aroE fragment and 2600 bp pUC118 vector fragment. • (iii) Ligate fragments and transform into GB100. The subclone was designated pMON21133 and the PCR-derived clone was named pMON21132. Clones from both approaches were first confirmed for complementation of the aroA mutation in E. coli GB100. […] These specific activities reflect the expected types of expression levels of the two vectors. […] The appKm(PEP) and the appKi(glyphosate) of the subcloned B. subtilis EPSPS (pMON21133) were determined as described above. […] Characterization of the EPSPS Gene from Staphylococcus aureus

For data set [2], the system named is EPSPS enzymes. As to the kind of experiment: Kinetic characterization of EPSPS enzymes (Km PEP, Ki glyphosate). Type of data set: biochemical. The note with it: for Ki/Km: Ki glyphosate / Km PEP; for Km: Km of the EPSPS enzyme for phosphoenolpyruvate, PEP ranges tested in table footnotes. The method, then: The EPSPS enzymes from these microorganisms were then subjected to further study and analysis.
When the change introduced into the Petunia EPSPS (GA101) was introduced into a number of other EPSPS enzymes, similar changes in kinetics were observed, an elevation of the Ki for glyphosate and of the Km for PEP.
All protein purification procedures were carried out at 3–5° C. EPSPS enzyme assays were performed using either the phosphate release or radioactive HPLC method, as previously described in Padgette et al., 1987, using 1 mM phosphoenol pyruvate (PEP, Boehringer) and 2 mM shikimate-3-phosphate (S3P) substrate concentrations. For radioactive HPLC assays, ^14C-PEP (Amersham) was utilized. S3P was synthesized as previously described in Wibbenmeyer et al. 1988. N-terminal amino acid sequencing was performed by loading samples onto a Polybrene precycled filter in aliquots while drying. Automated Edman degradation chemistry was used to determine the N-terminal protein sequence, using an Applied Biosystems Model 470A gas phase sequencer (Hunkapiller et al., 1983) with an Applied Biosystems 120A PTH analyzer.

The target in data set [3] is T2, CP4 EPSPS (Agrobacterium sp., UniProt Q9R4E4, S2A).
T2 construct: made in house; host or cells: E. coli, PRecA-gene10L vector
T2 sequence (Q9R4E4 whole entry S2A): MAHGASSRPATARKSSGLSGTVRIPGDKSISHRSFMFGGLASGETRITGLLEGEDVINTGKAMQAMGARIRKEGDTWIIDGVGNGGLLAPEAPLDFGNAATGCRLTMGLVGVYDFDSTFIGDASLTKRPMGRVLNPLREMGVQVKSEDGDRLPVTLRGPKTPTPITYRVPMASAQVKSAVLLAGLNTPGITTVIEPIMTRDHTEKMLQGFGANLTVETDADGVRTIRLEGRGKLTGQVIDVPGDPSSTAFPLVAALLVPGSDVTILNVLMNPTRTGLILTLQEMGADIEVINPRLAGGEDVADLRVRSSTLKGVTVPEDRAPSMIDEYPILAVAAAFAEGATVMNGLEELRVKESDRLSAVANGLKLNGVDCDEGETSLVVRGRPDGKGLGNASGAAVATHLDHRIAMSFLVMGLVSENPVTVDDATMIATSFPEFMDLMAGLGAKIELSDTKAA
The data set is described as follows: EPSPS activity from native and synthetic CP4 EPSPS genes expressed in E. coli. Type of data set: biochemical, Agrobacterium sp. strain CP4. The text has this: A synthetic CP4 gene was designed to change as completely as possible those inimical sequences discussed above. In summary, the gene sequence was redesigned to eliminate as much as possible the following sequences or sequence features (while avoiding the introduction of unnecessary restriction sites): stretches of G's and C's of 5 or greater; and A+T rich regions (predominantly) that could function as polyadenylation sites or potential RNA destabilization region The sequence of this gene is shown in FIG. 8 (SEQ ID NO:9). This coding sequence was expressed in E. coli from the RecA promoter and assayed for EPSPS activity and compared with that from the native CP4 EPSPS gene. […] The N-terminus of the coding sequence was mutagenized to place an SphI site at the ATG to permit the construction of the CTP2-CP4 synthetic fusion for chloroplast import. The following primer was used to accomplish this mutagenesis:
The EPSPS gene was isolated originally from Agrobacterium sp. strain CP4 and expresses a highly tolerant enzyme. The original gene contains sequences that could be inimical to high expression of the gene in some plants. […] The high G+C % in the CP4 EPSPS gene could also result in the formation of strong hairpin structures that may affect expression or stability of the RNA. A plant preferred version of the gene was synthesized and used for these vectors. This coding sequence was expressed in E. coli from a PRecA-gene10L vector (Olins et al., 1988) and the EPSPS activity was compared with that from the native CP4 EPSPS gene. […] The N-terminus of the coding sequence was then mutagenized to place an SphI site (GCATGC) at the ATG to permit the construction of the CTP2-CP4 synthetic fusion for chloroplast import. This change had no apparent effect on the in vivo activity of CP4 EPSPS in E. coli as judged by complementation of the aroA mutant. A CTP-CP4 EPSPS fusion was constructed between the Arabidopsis thaliana EPSPS CTP (Klee et al., 1987) and the CP4 EPSPS coding sequences. The Arabidopsis CTP was engineered by site-directed mutagenesis to place a SphI restriction site at the CTP processing site. This mutagenesis replaced the Glu-Lys at this location with Cys-Met. The CTP2-CP4 EPSPS fusion was tested for import into chloroplasts isolated from Lactuca sativa using the methods described previously (della-Cioppa et al., 1986: 1987).

Setting [4] is: 1 mM PEP, 2 mM S3P, pH 7.0, 25° C.
Where [5] appears, read: 2 mM S3P, varying PEP, pH 7.0, 25° C.

B1: pMON21133: B. subtilis EPSPS (aroE) subcloned from ECE13 into pUC118, expressed in E. coli GB100 (protein, UniProt P54374 1-280, looked up)
Shikimate dehydrogenase …: MKKLYGVIGNPIGHSMSPDIHNASLKDLGLDGHYHAFKVEENDLEDAVKGIRALGVQGINVTVPHKVSIMDYLDHIDESAKVLGAVNTVRREGDKLVGYNTDGEGFVKSLMKVLDKPISELSFLMIGAGGAARAIFTTIVRNTPKKFDICNRTLEKAKRLTEATPSFHNKEVLSIKEAEERLEQYDVIIHTTSVGMYPNVDDVPLSLQRAASSAVVCDIVYNPIQTALLKEASQKGLKTLDGVGMFVEQAALSFQLWTGQEPNIEKMRSIVIGKLGGTEC
Turning to B1, the EPSPS specific activity in data set [1] (setting [4]) stood at 0.044 U/mg.

B2: pMON21132: B. subtilis EPSPS from the PCR-derived aroE clone, expressed in E. coli GB100 (protein, UniProt P54374 1-280, looked up)
Shikimate dehydrogenase …: MKKLYGVIGNPIGHSMSPDIHNASLKDLGLDGHYHAFKVEENDLEDAVKGIRALGVQGINVTVPHKVSIMDYLDHIDESAKVLGAVNTVRREGDKLVGYNTDGEGFVKSLMKVLDKPISELSFLMIGAGGAARAIFTTIVRNTPKKFDICNRTLEKAKRLTEATPSFHNKEVLSIKEAEERLEQYDVIIHTTSVGMYPNVDDVPLSLQRAASSAVVCDIVYNPIQTALLKEASQKGLKTLDGVGMFVEQAALSFQLWTGQEPNIEKMRSIVIGKLGGTEC
In turn, B2 gave an EPSPS specific activity in data set [1] (setting [4]) of 0.71 U/mg.

B3: PG2982: Class II EPSPS enzyme from Pseudomonas sp. strain PG2982 (SEQ ID NO:7) (protein, listed as Pseudomonas sp.)
chain: MSHSASPKPATARRSEALTGEIRIPGDKSISHRSFMFGGLASGETRITGLLEGEDVINTGRAMQAMGAKIRKEGDVWIINGVGNGCLLQPEAALDFGNAGTGARLTMGLVGTYDMKTSFIGDASLSKRPMGRVLNPLREMGVQVEAADGDRMPLTLIGPKTANPITYRVPMASAQVKSAVLLAGLNTPGVTTVIEPVMTRDHTEKMLQGFGADLTVETDKDGVRHIRITGQGKLVGQTIDVPGDPSSTAFPLVAALLVEGSDVTIRNVLMNPTRTGLILTLQEMGADIEVLNARLAGGEDVADLRVRASKLKGVVVPPERAPSMIDEYPVLAIAASFAEGETVMDGLDELRVKESDRLAAVARGLEANGVDCTEGEMSLTVRGRPDGKGLGGGTVATHLDHRIAMSFLVMGLAAEKPVTVDDSNMIATSFPEFMDMMPGLGAKIELSIL
For the molecule B3, in data set [2], the Ki/Km is listed as ~8–40 and the Michaelis-Menten constant (Km) lay in the range of 2.1 to 3.1 µM.

B4: synthetic CP4 gene: EPSPS enzyme expressed in E. coli from the synthetic CP4 gene (SEQ ID NO:9) (protein, UniProt Q9R4E4 1-455, looked up)
3-phosphoshikimate …: MSHGASSRPATARKSSGLSGTVRIPGDKSISHRSFMFGGLASGETRITGLLEGEDVINTGKAMQAMGARIRKEGDTWIIDGVGNGGLLAPEAPLDFGNAATGCRLTMGLVGVYDFDSTFIGDASLTKRPMGRVLNPLREMGVQVKSEDGDRLPVTLRGPKTPTPITYRVPMASAQVKSAVLLAGLNTPGITTVIEPIMTRDHTEKMLQGFGANLTVETDADGVRTIRLEGRGKLTGQVIDVPGDPSSTAFPLVAALLVPGSDVTILNVLMNPTRTGLILTLQEMGADIEVINPRLAGGEDVADLRVRSSTLKGVTVPEDRAPSMIDEYPILAVAAAFAEGATVMNGLEELRVKESDRLSAVANGLKLNGVDCDEGETSLVVRGRPDGKGLGNASGAAVATHLDHRIAMSFLVMGLVSENPVTVDDATMIATSFPEFMDLMAGLGAKIELSDTKAA
Turning to B4, the “appKm for PEP” value in data set [3] (expressed in E. coli from a PRecA-gene10L vector) is 12.7 µM. In data set [3] (expressed in E. coli from the RecA promoter, read-out: apparent Km for PEP), the Km is 12.7 µM.

B5: B. subtilis 1A2: Class II EPSPS from Bacillus subtilis 1A2 (SEQ ID NO:42) (protein, listed as Bacillus subtilis)
chain: MKRDKVQTLHGEIHIPGDKSISHRSVMFGALAAGTTTVKNFLPGADCLSTIDCFRKMGVHIEQSSSDVVIHGKGIDALKEPESLLDVGNSGTTIRLMLGILAGRPFYSAVAGDESIAKRPMKRVTEPLKKMGAKIDGRAGGEFTPLSVSGASLKGIDYVSPVASAQIKSAVLLAGLQAEGTTTVTEPHKSRDHTERMLSAFGVKLSEDQTSVSIAGGQKLTAADIFVPGDISSAAFFLAAGAMVPNSRIVLKNVGLNPTRTGIIDVLQNMGAKLEIKPSADSGAEPYGDLIIETSSLKAVEIGGDIIPRLIDEIPIIALLATQAEGTTVIKDAAELKVKETNRIDTVVSELRKLGAEIEPTADGMKVYGKQTLKGGAAVSSHGDHRIGMMLGIASCITEEPIEIEHTDAIHVSYPTFFEHLNKLSKKS
As for B5, the “EPSPS activity retained in the presence of 1 mM glyphosate” value in data set [1] (1 mM glyphosate, 1 mM PEP, 2 mM S3P) worked out at 100%. For the same molecule, in data set [1] (setting [5]), the “appKm(PEP), Eadie-Hofstee plot” value is 12.2 µM; the “appKm(PEP), Lineweaver-Burk plot” value amounted to 10.8 µM; the “appKm(PEP), hyperbolic plot” value amounted to 15.3 µM. Moreover, the “average value for appKm(PEP)” value in data set [1] (average of three data treatments) came out at 13 µM. In data set [1] (setting [4]), the EPSPS specific activity worked out at 0.003 U/mg. Further, in data set [2], the Ki/Km was found to be 33.8 and the Michaelis-Menten constant (Km) is 13 µM.

A word on the Km: it is the substrate concentration at which the rate is half of its maximum.
